From article PMC3718980 (The Journal of Cell Biology, 2013)
Positions count from the first letter of the chain named.

Tests used:
[1] = target: microtubules (polymerized with GMPCPP, in taxol); assay: co-sedimentation
[2] = target: T1, GST-CERMAD of wild-type Moesin (residues 483–578) (Drosophila melanogaster, UniProt P46150 483-578); assay: pull-down
T1 sequence (looked up): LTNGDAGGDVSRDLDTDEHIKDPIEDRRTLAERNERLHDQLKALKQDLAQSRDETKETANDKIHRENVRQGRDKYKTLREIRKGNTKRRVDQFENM

[3] = target: microtubules (polymerized with GMPCPP, in taxol); assay: co-sedimentation; remark: listed apart in the source

Q: Which Kd [1] does the source give for “Moesin1–559 (Drosophila Moesin with the C-terminal 19 amino acids deleted) (from UniProt P46150 1-559) (domain or fragment)” here?
A: The Kd was 1900 nM.

B1: FERM domain of Drosophila Moesin, wild type (domain or fragment, Drosophila melanogaster, UniProt P46150 1-296, looked up)
chain: MSPKALNVRVTTMDAELEFAIQSTTTGKQLFDQVVKTIGLREVWFFGLQYTDSKGDSTWIKLYKKVMNQDVKKENPLQFRFRAKFYPEDVAEELIQDITLRLFYLQVKNAILTDEIYCPPETSVLLASYAVQARHGDHNKTTHTAGFLANDRLLPQRVIDQHKMSKDEWEQSIMTWWQEHRSMLREDAMMEYLKIAQDLEMYGVNYFEIRNKKGTDLWLGVDALGLNIYEQDDRLTPKIGFPWSEIRNISFSEKKFIIKPIDKKAPDFMFFAPRVRINKRILALCMGNHELYMRRR
Q: B1 was tested. Which “stoichiometry N” value [2] did it give?
A: Its value is 1.

B2: FERM-K212,213M of Drosophila Moesin (domain or fragment, Drosophila melanogaster, UniProt P46150 1-296, looked up)
chain: B1 chain with K212M, K213M
Q: Which “stoichiometry N” value [2] does the source give for B2 here?
A: Its value is 1.

Q: What about the fold reduction in the apparent Kd against FERM wild type [3] of the same molecule?
A: The fold reduction in the apparent Kd against FERM wild type was 3.6 fold.
